Laboratory results from patent US10765761B2, “Nucleic acid condensing peptide, nucleic acid condensing peptide set, nucleic acid delivery carrier, nucleic acid delivery method, cell production method, cell detection method and kit” (KABUSHIKI KAISHA TOSHIBA, priority 2016, dated 2020).

Experiments:
[1] = Average particle diameter, polydispersity index and Zeta potential of liposome (Complex), Example 8; format: physicochemical
Experimental: COATSOME/SS-20 (Nippon Oil & Fats), DOPE, cholesterol and DMG-PEG were dissolved into ethanol at a molar ratio of 5:3:1:0.3, to obtain a lipid solution. Five sets of 50 μL of lipid solutions put into tubes were prepared, and 50 μL of peptide-nucleic-acid solutions (1) to (4) and (7) of Example 6 were dropped thereto while stirring each lipid solution, thereby forming liposomes. 400 μL of 10 mM-HEPES (pH: 5.4) was added to each of the liposome solutions to make a total amount of 500 μL (this liposome solution will be referred to as “Complex” hereinafter).
The average particle diameter, polydispersity index and Zeta potential of liposome were investigated using the Complex. The average particle diameter, polydispersity index and Zeta potential were measured using a zetasizer.

plasmid vector (pDNA) [2] = test: Average particle diameter and Zeta potential of peptide-nucleic-acid complexes (zetasizer), Example 1; format: physicochemical
Experimental: The condensability of the nucleic acid by the peptide of the embodiment and the potential of the peptide-nucleic-acid complex were evaluated.
The peptides were each dissolved in 10 mM of HEPES (pH: 5.3) to prepare several peptide solutions having different peptide concentrations.
For the protamine, three peptide solutions were prepared to have peptide concentrations of: (1) 2.1 mg/ml, (2) 2.4 mg/ml and (3) 2.7 mg/ml. For the mHP-4, four peptide solutions were prepared to have peptide concentrations of: (4) 1.8 mg/ml, (5) 2.1 mg/ml, (6) 2.4 mg/ml and (7) 2.7 mg/ml. For the mHP-1, three peptide solutions were prepared to have peptide concentrations of: (8) 2.1 mg/ml, (9) 2.4 mg/ml and (10) 2.7 mg/ml. For the mHP-2, five peptide solutions were prepared to have peptide concentrations of: (11) 1.2 mg/ml, (12) 1.5 mg/ml, (13) 2.1 mg/ml, (14) 2.4 mg/ml and (15) 2.7 mg/ml. For the mHP-3, three peptide solutions were prepared to have peptide concentrations of: (16) 2.1 mg/ml, (17) 2.4 mg/ml and (18) 2.7 mg/ml. Further, plasmid vector (pDNA) was diluted with purified water to prepare a nucleic acid solution having a pDNA concentration of 3.0 mg/ml.
18 sets of nucleic acid solutions (90 μL) put in tubes were prepared and the peptide solutions (1) to (18) (90 μL) described above were dropped respectively therein and mixed while stirring each, to condense the nucleic acids. Thus, the peptide-nucleic-acid complexes were obtained. Then, the mixtures were each diluted with purified water to 25-fold to produce peptide-nucleic-acid solutions. Further, as references, samples containing only each respective peptide were also prepared without adding the nucleic acid solutions thereto.
The average particle diameter and Zeta potential of each of the peptide-nucleic-acid complexes were investigated using the peptide-nucleic-acid solutions. The average particle diameter and Zeta potential were measured using a zetasizer.

plasmid vector (pDNA) [3] = test: Average particle diameter, polydispersity index and Zeta potential of peptide-nucleic-acid complexes, Example 6; format: physicochemical; conditions: peptide-nucleic-acid complex, total peptide 0.24 mg/ml, pDNA 0.15 mg/ml
Experimental: Each of the peptides was dissolved into 10 mM-HEPES (pH: 5.4) to prepare several peptide solutions having different peptide concentrations.
For the mHP-1, one peptide solution was prepared to have a peptide concentration of (1) 0.24 mg/ml. For the mHP-2, one peptide solution was prepared to have a peptide concentration of (2) 0.24 mg/ml. For the mHP-1 and mHP-2, five peptide solutions were prepared to have a total peptide concentration of 0.24 mg/ml and mixture ratios between mHP-1 and mHP-2 of: (3) 1:1, (4) 1:3, (5) 1:5, (6) 1:7 and (7) 1:9. Meanwhile, plasmid vector (pDNA) was diluted with purified water to prepare a nucleic acid solution having a pDNA concentration of 0.15 mg/ml.
The peptide solutions (1) to (7) (100 μL) were prepared in tubes and the nucleic acid solution (200 μL) was dropped and mixed thereto while stirring each solution to condense the nucleic acids, and thus peptide-nucleic-acid complexes were obtained.
The peptide-nucleic-acid complexes were investigated in terms of average particle diameter, polydispersity index and Zeta potential using the respective peptide-nucleic-acid solutions. The average particle diameter, polydispersity index and Zeta potential were measured using a zetasizer.

plasmid vector (pDNA) [4] = test: Gel retardation assay: condensability and dissociation with M9, Example 11; format: binding
Experimental: Each of the peptides was dissolved in 10 mM-HEPES (pH: 5.4) and several peptide solutions having different peptide concentrations were prepared.
For M9, one peptide solution was prepared to have a peptide concentration of: (1) 0.24 mg/ml. For mHP-1 and mHP-2, peptide solutions were prepared to have a peptide concentration of 0.24 mg/ml and a mixture ratio between mHP-1 and mHP-2 of 1:3, and 1 μL of M9 was added to one to prepare a peptide solution (2), and M9 was not added to one to prepare a peptide solution (3). Moreover, the plasmid vector (pDNA) was diluted with purified water to prepare a nucleic acid solution having a pDNA concentration of 0.15 mg/ml. […]
As samples for the condensability evaluation, five sets of 5.5 μL of 10 mM-HEPES (pH: 5.4) were prepared, and 4.5 μL of the respective peptide-nucleic-acid solutions described above were added to prepare mixtures. […] After the electrophoresis, the nucleic acid dyed with ethidium bromide was visualized by UV irradiation, and the nucleic acids condensed by the peptide and the nucleic acid dissociating with the peptide and moving into the gel were detected.
FIG. 15 is a photograph showing the agarose gel subjected to UV irradiation. […] When an integrated band with a large molecular weight, which strongly shines is observed in the left lane, it was evaluated as a high condensability.

[5] = Average particle diameter and Zeta potential of liposome (zetasizer), Example 3; format: physicochemical
Experimental: (§1) COATSOME/SS-20 (Nippon Oil & Fats), DOPE, cholesterol and DMG-PEG were dissolved into ethanol at a molar ratio of 5:3:1:0.3, to obtain a lipid solution. Two sets of lipid solutions (0.5 ml) put into tubes were prepared, and 0.5 ml of peptide-nucleic-acid solutions (8) (mHP-1) and (16) (mHP-3) of Example 1 were dropped thereto while stirring each lipid solution, thereby forming liposomes. 9 ml of 10 mM-HEPES (pH: 5.3) was added to each of the liposome solutions to make a total amount of 10 ml (each liposome solution will be referred to as “Complex” hereinafter). Further, on an assumption that the liposome is taken into an organism, and liposome solutions (which will be referred to as “HEPES replacement”) in which ethanol, which is the solvent of Complex is substituted by HEPES were produced. The HEPES replacements were produced by condensing each solution of Complex to 1.5 ml with an ultrafiltration film for 300 kDa, adding 8.5 ml of 100 mM-HEPES (pH: 7.4) to each, performing ultrafiltration, thereafter substituting the solvent with 10 mM-HEPES (pH: 7.4), and finally condensing to 0.5 ml. Further, the HEPES replacements were filtered for sterilization with a filter with a pore diameter of 0.45 μm to prepare solutions (which will be referred to as “0.45 μm” hereinafter).
(§2) The “peptide-nucleic-acid solution”, “HEPES substituent” and “0.45 micrometer”, each of which contain the protamine, mHP-1 or mHP-3 prepared as above were examined in terms of average particle diameter of liposome, Zeta potential and amount of encapsulation of plasmid. The average particle diameter and Zeta potential were measured using a zetasizer. The amount of encapsulation of plasmid was measured using a Quant-iT PicoGreen (registered trademark) dsDNA assay kit.

plasmid = test: Amount of encapsulation of plasmid in liposome (Quant-iT PicoGreen dsDNA assay kit), Example 3; format: physicochemical
Experimental: as §1, §2

[6] = pDNA/peptide 1/0.4 (peptide conc. 1.2 mg/mL)
[7] = pDNA/peptide 1/0.5 (peptide conc. 1.5 mg/mL)
[8] = pDNA/peptide 1/0.7 (peptide conc. 2.1 mg/mL)
[9] = pDNA/peptide 1/0.8 (peptide conc. 2.4 mg/mL)
[10] = pDNA/peptide 1/0.9 (peptide conc. 2.7 mg/mL)
[11] = peptide solely, no nucleic acid (Reference)
[12] = pDNA/peptide 1/0.6 (peptide conc. 1.8 mg/mL)

| Sequence | Average particle diameter (zAve) (plasmid vector (pDNA) [2]; [8]) [nm] | Zeta potential (plasmid vector (pDNA) [2]; [8]) [mV] | Average particle diameter (zAve) (plasmid vector (pDNA) [2]; [9]) [nm] | Zeta potential (plasmid vector (pDNA) [2]; [9]) [mV] | Average particle diameter (zAve) (plasmid vector (pDNA) [2]; [10]) [nm] | Zeta potential (plasmid vector (pDNA) [2]; [10]) [mV] | Average particle diameter (zAve) (plasmid vector (pDNA) [2]; [11]) [nm] | Zeta potential (plasmid vector (pDNA) [2]; [11]) [mV] | other results |
| --- | --- | --- | --- | --- | --- | --- | --- | --- | --- |
| RRRRRRYYRQRQRGGRRRRRR (Comperative example of nucleic acid condensing peptide) [mHP-2] | 184.0 | 27.3 | 159.0 | 21.6 | 158.6 | 34.2 | 321.0 | 50.5 | Average particle diameter (zAve) [1]: 250.0 nm; Polydispersity index (PDI) [1]: 0.092; Zeta potential [1]: 36.2 mV; Average particle diameter (zAve) (plasmid vector (pDNA) [2]; [6]): 141.8 nm; Zeta potential (plasmid vector (pDNA) [2]; [6]): −27.7 mV; Average particle diameter (zAve) (plasmid vector (pDNA) [2]; [7]): 139.8 nm; Zeta potential (plasmid vector (pDNA) [2]; [7]): −17.7 mV; Average particle diameter (zAve) (plasmid vector (pDNA) [3]): 169.1 nm; Polydispersity index (PDI) (plasmid vector (pDNA) [3]): 0.285; Zeta potential (plasmid vector (pDNA) [3]): −34.1 mV |
| GNQSSNFGPMKGGNFGGRSSGPYGGGGQYFAKPRNQGGYGGGKCRGKVPGKYGKG [M9, third nucleic acid condensing peptide comprising M9 domain of hnRNP A1] |  |  |  |  |  |  |  |  | influence on condensability or dissociation of nucleic acid by mixed mHP-1 and mHP-2 peptide solution (plasmid vector (pDNA) [4]; M9 added to mHP-1:mHP-2 1:3 peptide solution (FIG. 15)): does not influence the condensability or dissociation; nucleic acid condensability (plasmid vector (pDNA) [4]; M9 used solely, 0.24 mg/ml, 0.8% agarose gel (FIG. 15)): does not exhibit nucleic acid condensability |
| PRRRRSSSRPIRRRRPRRASRRRRRRGGRRRR (salmon) [Protamine sequence, reference compound] | 136.5 | −27.8 | 135.9 | −24.9 | 139.6 | −29.5 | 711.3 | 28.1 | Average particle diameter (zAve) ([5]; Peptide-nucleic acid solution): 167.8 nm; Zeta potential ([5]; Peptide-nucleic acid solution): −41.30 mV; Average particle diameter (zAve) ([5]; liposome, 0.45 μm filtered): 235.5 nm; Zeta potential ([5]; liposome, 0.45 μm filtered): −0.72 mV; Average particle diameter (zAve) ([5]; liposome, HEPES substitution): 392.2 nm; Zeta potential ([5]; liposome, HEPES substitution): −0.47 mV; Plasmid inclusion amount (plasmid; 0.45 μm filtered): 7.97 µg/mL; Plasmid inclusion amount (plasmid; HEPES substitution): 12.68 µg/mL |
| RRRRRRGGRRRRRR (Comperative example of nucleic acid condensing peptide) [mHP-4] | 141.2 | −30.7 | 323.4 | 28.6 | 212.2 | 33.0 | 1083.0 | 39.7 | Average particle diameter (zAve) (plasmid vector (pDNA) [2]; [12]): 130.9 nm; Zeta potential (plasmid vector (pDNA) [2]; [12]): −23.8 mV |
